Experimental data as given in the Human Domainome abundance scans (Beltran et al. 2025).
± gives the uncertainty stated by the source.

Assay: abundance fitness (aPCA) (normalised: wild type 0, dead -1); higher = more abundant; growth selection in yeast, the domain comes from the species named
Details: Homo sapiens

Substance | abundance fitness
DnaJ homolog subfamily B member 1 S56G, P25685 | 0.002 ± 0.079
DnaJ homolog subfamily B member 1 S56H, P25685 | -0.217 ± 0.16
DnaJ homolog subfamily B member 1 S56I, P25685 | -0.174 ± 0.36
DnaJ homolog subfamily B member 1 S56K, P25685 | -0.051 ± 0.17
DnaJ homolog subfamily B member 1 S56M, P25685 | -0.171 ± 0.095
DnaJ homolog subfamily B member 1 S56N, P25685 | -0.343 ± 0.15
DnaJ homolog subfamily B member 1 S56P, P25685 | -0.99 ± 0.1
DnaJ homolog subfamily B member 1 S56Q, P25685 | -0.25 ± 0.14
DnaJ homolog subfamily B member 1 S56R, P25685 | -0.226 ± 0.091
DnaJ homolog subfamily B member 1 S56T, P25685 | -0.111 ± 0.087
DnaJ homolog subfamily B member 1 S56V, P25685 | -0.071 ± 0.066
DnaJ homolog subfamily B member 1 S56W, P25685 | -0.853 ± 0.11
DnaJ homolog subfamily B member 1 S56Y, P25685 | -0.493 ± 0.11
DnaJ homolog subfamily B member 1 T8A, P25685 | -0.143 ± 0.079
DnaJ homolog subfamily B member 1 T8C, P25685 | -0.096 ± 0.094
DnaJ homolog subfamily B member 1 T8D, P25685 | -0.101 ± 0.083
DnaJ homolog subfamily B member 1 T8E, P25685 | -0.239 ± 0.11
DnaJ homolog subfamily B member 1 T8F, P25685 | -0.352 ± 0.17
DnaJ homolog subfamily B member 1 T8G, P25685 | -0.469 ± 0.099
DnaJ homolog subfamily B member 1 T8H, P25685 | 0.211 ± 0.46
DnaJ homolog subfamily B member 1 T8I, P25685 | 0.036 ± 0.088
DnaJ homolog subfamily B member 1 T8L, P25685 | -0.101 ± 0.071
DnaJ homolog subfamily B member 1 T8M, P25685 | -0.121 ± 0.17
DnaJ homolog subfamily B member 1 T8N, P25685 | -0.303 ± 0.18
DnaJ homolog subfamily B member 1 T8P, P25685 | -0.333 ± 0.067
DnaJ homolog subfamily B member 1 T8Q, P25685 | -0.165 ± 0.12

Substance | abundance fitness
DnaJ homolog subfamily B member 1 T8S, P25685 | -0.149 ± 0.093
DnaJ homolog subfamily B member 1 T8V, P25685 | -0.106 ± 0.058
DnaJ homolog subfamily B member 1 T8W, P25685 | -0.281 ± 0.1
DnaJ homolog subfamily B member 1 T8Y, P25685 | -0.261 ± 0.05
DnaJ homolog subfamily B member 1 V54A, P25685 | -0.201 ± 0.2
DnaJ homolog subfamily B member 1 V54C, P25685 | 0.063 ± 0.086
DnaJ homolog subfamily B member 1 V54D, P25685 | -0.419 ± 0.14
DnaJ homolog subfamily B member 1 V54E, P25685 | -0.126 ± 0.15
DnaJ homolog subfamily B member 1 V54F, P25685 | 0.077 ± 0.21
DnaJ homolog subfamily B member 1 V54G, P25685 | -0.322 ± 0.058
DnaJ homolog subfamily B member 1 V54H, P25685 | -0.886 ± 0.19
DnaJ homolog subfamily B member 1 V54I, P25685 | -0.096 ± 0.12
DnaJ homolog subfamily B member 1 V54L, P25685 | -0.171 ± 0.076
DnaJ homolog subfamily B member 1 V54M, P25685 | -0.084 ± 0.14
DnaJ homolog subfamily B member 1 V54N, P25685 | -0.084 ± 0.11
DnaJ homolog subfamily B member 1 V54P, P25685 | -0.699 ± 0.059
DnaJ homolog subfamily B member 1 V54Q, P25685 | -0.423 ± 0.21
DnaJ homolog subfamily B member 1 V54S, P25685 | -0.15 ± 0.076
DnaJ homolog subfamily B member 1 V54T, P25685 | 0.065 ± 0.12
DnaJ homolog subfamily B member 1 V54W, P25685 | -0.185 ± 0.16
DnaJ homolog subfamily B member 1 V54Y, P25685 | -0.211 ± 0.27
DnaJ homolog subfamily B member 1 Y5A, P25685 | -0.316 ± 0.13
DnaJ homolog subfamily B member 1 Y5C, P25685 | -0.164 ± 0.18
DnaJ homolog subfamily B member 1 Y5E, P25685 | -0.808 ± 0.28
DnaJ homolog subfamily B member 1 Y5F, P25685 | -0.449 ± 0.16
DnaJ homolog subfamily B member 1 Y5G, P25685 | -0.672 ± 0.092

Substance | abundance fitness
DnaJ homolog subfamily B member 1 Y5H, P25685 | 0.024 ± 0.068
DnaJ homolog subfamily B member 1 Y5I, P25685 | -0.416 ± 0.21
DnaJ homolog subfamily B member 1 Y5K, P25685 | -0.493 ± 0.15
DnaJ homolog subfamily B member 1 Y5L, P25685 | -0.284 ± 0.14
DnaJ homolog subfamily B member 1 Y5M, P25685 | -0.179 ± 0.11
DnaJ homolog subfamily B member 1 Y5N, P25685 | -0.392 ± 0.12
DnaJ homolog subfamily B member 1 Y5P, P25685 | -0.232 ± 0.15
DnaJ homolog subfamily B member 1 Y5Q, P25685 | -0.3 ± 0.15
DnaJ homolog subfamily B member 1 Y5R, P25685 | -0.52 ± 0.11
DnaJ homolog subfamily B member 1 Y5S, P25685 | -0.262 ± 0.1
DnaJ homolog subfamily B member 1 Y5T, P25685 | -0.699 ± 0.24
DnaJ homolog subfamily B member 1 Y5V, P25685 | -1.47 ± 0.2
DnaJ homolog subfamily B member 1 Y5W, P25685 | -0.305 ± 0.22
DnaJ homolog subfamily B member 1 Y6A, P25685 | -0.991 ± 0.18
DnaJ homolog subfamily B member 1 Y6C, P25685 | -0.863 ± 0.22
DnaJ homolog subfamily B member 1 Y6D, P25685 | -0.747 ± 0.16
DnaJ homolog subfamily B member 1 Y6E, P25685 | -0.683 ± 0.097
DnaJ homolog subfamily B member 1 Y6F, P25685 | -0.162 ± 0.16
DnaJ homolog subfamily B member 1 Y6G, P25685 | -0.977 ± 0.2
DnaJ homolog subfamily B member 1 Y6K, P25685 | -0.911 ± 0.15
DnaJ homolog subfamily B member 1 Y6M, P25685 | -0.806 ± 0.11
DnaJ homolog subfamily B member 1 Y6N, P25685 | -0.523 ± 0.13
DnaJ homolog subfamily B member 1 Y6P, P25685 | -0.589 ± 0.2
DnaJ homolog subfamily B member 1 Y6Q, P25685 | -0.742 ± 0.13
DnaJ homolog subfamily B member 1 Y6R, P25685 | -0.986 ± 0.1
DnaJ homolog subfamily B member 1 Y6S, P25685 | -0.817 ± 0.072

Substance | abundance fitness
DnaJ homolog subfamily B member 1 Y6T, P25685 | -0.557 ± 0.11
DnaJ homolog subfamily B member 1 Y6V, P25685 | -1.18 ± 0.086
DnaJ homolog subfamily B member 1 Y6W, P25685 | -0.204 ± 0.13
DnaJ homolog subfamily B member 1 Y24A, P25685 | -0.686 ± 0.24
DnaJ homolog subfamily B member 1 Y24C, P25685 | -0.504 ± 0.086
DnaJ homolog subfamily B member 1 Y24D, P25685 | -0.654 ± 0.16
DnaJ homolog subfamily B member 1 Y24E, P25685 | -0.411 ± 0.1
DnaJ homolog subfamily B member 1 Y24F, P25685 | -0.075 ± 0.2
DnaJ homolog subfamily B member 1 Y24G, P25685 | -0.499 ± 0.1
DnaJ homolog subfamily B member 1 Y24H, P25685 | -0.38 ± 0.2
DnaJ homolog subfamily B member 1 Y24I, P25685 | -0.788 ± 0.2
DnaJ homolog subfamily B member 1 Y24K, P25685 | -0.358 ± 0.099
DnaJ homolog subfamily B member 1 Y24L, P25685 | -0.492 ± 0.061
DnaJ homolog subfamily B member 1 Y24M, P25685 | -0.223 ± 0.074
DnaJ homolog subfamily B member 1 Y24N, P25685 | -0.408 ± 0.11
DnaJ homolog subfamily B member 1 Y24Q, P25685 | -0.547 ± 0.091
DnaJ homolog subfamily B member 1 Y24R, P25685 | -0.404 ± 0.055
DnaJ homolog subfamily B member 1 Y24S, P25685 | -0.464 ± 0.055
DnaJ homolog subfamily B member 1 Y24T, P25685 | -0.427 ± 0.08
DnaJ homolog subfamily B member 1 Y24V, P25685 | -0.547 ± 0.09
DnaJ homolog subfamily B member 1 Y24W, P25685 | -0.159 ± 0.079
DnaJ homolog subfamily B member 1 Y31A, P25685 | -0.175 ± 0.12
DnaJ homolog subfamily B member 1 Y31D, P25685 | -0.27 ± 0.16
DnaJ homolog subfamily B member 1 Y31E, P25685 | -0.294 ± 0.089
DnaJ homolog subfamily B member 1 Y31F, P25685 | -0.347 ± 0.17
DnaJ homolog subfamily B member 1 Y31G, P25685 | -0.302 ± 0.1
